Results as given in US5525479A, “Fluorescence assay of Ras farnesyl protein transferase” (Merck & Co., Inc., priority 1994, dated 1996).
Ends that are not written are not given here. Peptide text beside a SMILES is read from it. * marks the point of attachment. Dansyl = CN(C)c1cccc2c(S(=O)(=O)*)cccc12

Target: recombinant human farnesyl:protein transferase (hFPTase) (Homo sapiens, UniProt P49354+P49356)
Test: continuous fluorescence assay of farnesyl:protein transferase activity with dansylated acceptor peptide
Format: biochemical
Conditions: for substrate of FPTase (fluorescence enhancement): other dansylated peptides synthesized to optimize the sensitivity of the assay
Method: FIG. 1A is a fluorescence progress curve, A, of the reaction catalyzed by recombinant human farnesyl:protein transferase (hFPTase; 0.5 nM) using Ds-GlyCysValLeySer (SEQ.ID.NO.:1) (1.0 μM) as substrate in the presence of a saturating concentration of farnesyl diphosphate ([…]) in assay buffer (50 mM Tris-HCl, pH 7.5, 5 mM DTT, 5 mM MgCl2, 10 μM ZnCl2, and 0.2% octyl-β-D-glucopyranoside) at 30° C. Fluorescence data in the integration mode were obtained on a SPEX Fluorolog Model F112X1 spectrofluorimeter with λex =340 nm (slit width=4 nm) and λem =505 nm (slit width=8 nm) using 4 mm square microcells. Concentrations of stock solutions of Ds-GlyCysValLeuSer (SEQ.ID.NO.: 1 ) (in 20 mM Tris-CHl, pH 7.5, 10 mM EDTA) were calculated from the extinction coefficient of the dansyl moiety at 340 nm(ε=4250 M^-1 cm^-1).
Double reciprocal plot of initial velocity versus Ds-GlyCysValLeuSer (SEQ.ID.NO.:1) concentration in the presence of (.cndot.)0, and 50 nM CysIlePheMet (SEQ.ID.NO.:2) at 30° C. Reactions (400 μL) contained hFPTase(1 nM), FPP (10 μM) and varying concentrations of Ds-GlyCysValLeuSer (SEQ.ID.NO.:1) with or without 50 nM peptide CysIlePheMet (SEQ.ID.NO.:2) in assay buffer (see FIG. 1).
The continuous FPTase activity assay is based on the enhancement of fluorescence and the accompanying shift to lower wavelength emission maximum of certain fluorophores, like dansyl, upon change from a polar to non-polar molecular environment (Lakowicz, Principles of Fluorescence Spectroscopy, Plenum Press, New York, (1983)). The present invention utilizes an acceptor peptide substrate with an environmentally sensitive fluorescence probe positioned proximally to the reaction center. Substrate pentapeptide N-dansyl-GlyCysValLeuSer(Ds Gly CysValLeuSer) (SEQ.ID.NO.1) and expected product N-dansyl-Gly(S-farnesyl-Cys)ValLeuSer(Ds-Gly[f-Cys]LeuSer were synthesized by standard methods.
(Pompliano, et al., Biochemistry, 31, 3800-3807 (1992)).

| Molecule | substrate of FPTase (fluorescence enhancement) | also measured |
| --- | --- | --- |
| Ds-LysCysValLeuSer (Dansyl-KCVLS) [dansylated peptide] | substrates |  |
| CysIlePheMet (CIFM) [reference compound] |  | Ki (competitive inhibitor of Ds-GlyCysValLeuSer binding, hFPTase 1 nM, FPP 10 μM, 30° C.): 9 nM |
| CC(C)=CCC/C(C)=C/CC/C(C)=C/CO[P@@](=O)(O)OP(=O)(O)O (stereo in doubt) [FPP, farnesyl diphosphate, reference compound] |  | Km (in the presence of Ds-GlyCysValLeuSer as acceptor substrate, read-out: KM (FPP)): 0.03 µM |
| CC(C)C[C@H](NC(=O)[C@@H](NC(=O)[C@H](CS)NC(=O)CNS(=O)(=O)c1cccc2c(N(C)C)cccc12)C(C)C)C(=O)N[C@@H](CO)C(=O)O [Ds-GlyCysValLeuSer, N-dansyl-L-glycinyl-L-cysteinyl-L-valinyl-L-leucinyl-L-serine] (Dansyl-GCVLS-OH) |  | kcat (Ds-GlyCysValLeuSer as acceptor substrate, Michaelis-Menten kinetics, assay buffer pH 7.5, 30° C.): 0.5 S^-1 |

Second part, led by results:

| substrate of FPTase (fluorescence enhancement) | Molecule | also measured |
| --- | --- | --- |
| substrates | Ds-GlyCysCysValLeuSer |  |
| substrates | Ds-CysValLeuSer (Dansyl-CVLS) [dansylated peptide] |  |
| substrates | Ds-CysValIleMet (Dansyl-CVIM) [dansylated peptide] |  |
